“Also recorded” adds a separate entry of the source.
Key:
[1] = test system: TRPV1 in the spinal cord; details: completely reversible by a TRPV1 antagonist; cited from earlier work
[2] = test system: LA-evoked nofifensive behaviors; assay: LA-evoked nocifensive behaviors after capsazepine pretreatment (FIG. 3B); type: in vivo; details: pretreatment before linoleic acid
[3] = test system: TRPV1 knock-out (KO) mice; assay: LA-triggered nocifensive behaviors in TRPV1 knock-out versus wild type mice (FIG. 3C); type: in vivo; details: TRPV1 KO mice compared to wild type mice
[4] = test system: normal rats; assay: Spontaneous nocifensive behaviors after linoleic acid injection in normal rats (FIG. 3A); type: in vivo, rat
[5] = ELASA (ELISA-like) plate screening of aptamers against 13-HODE / biotinylated 13-HODE; type: binding; details: for Trial 2 Abs 405 nm: ELASA trial 2; for Trial 2 Abs 405 nm / Trial 3 Abs 405 nm / Trial 1 Abs 405 nm: 13-HODE / biotinylated 13-HODE aptamers, absorbance 10-15 minutes after final addition of ABTS substrate; for Trial 3 Abs 405 nm: ELASA trial 3; for Trial 1 Abs 405 nm: ELASA trial 1; for Affinity ranking in ELASA plate screening: biotinylated 13-HODE target, three trials, done in triplicate
Description: (§1) To evaluate, screen, and rank aptamers based on affinity against their cognate HODE isomers, two different approaches are used. The first involved the use of Corning Costar Universal Bind™ microplates (No. 2503) for ultraviolet (UV) immobilization of 200 ng/well of unlabeled HODES to the plate's surface (Bruno et al., 2008 and 2009) using 0.2 Joules/cm^2 in a UV crosslinker oven for 15 minutes. The second involved streptavidin (SAv)-coated microwell strips (Nunc, Inc. Catalogue #436020) in which 400 ng of the biotinylated-13-HODE are immobilized for 30 minutes at RT with gentle mixing in 200 μl of PBS per well.
(§2) Plates or wells are decanted and washed three times in 250 μl of 1×BB. Each of the different 5′-biotinylated aptamers raised against the target is dissolved in 1×BB at 1.00 nmole per 100 microliters and applied to their corresponding plate wells for 1 hour at RT with gentle mixing on an orbital shaker. The plate is decanted and washed three times in 250 μl of 1×BB for at least 5 minutes per wash with gentle mixing. One hundred μl of a 1:2,000 dilution of SAv-peroxidase from a 5 mg/ml stock solution in 1×BB is added per well for 30 minutes at RT with gentle mixing. The plate is decanted and washed three times with 250 μl of 1×BB per well as before.
(§3) One hundred μl of ABTS (2,2′-azino-bis(3-ethylbenzthiazoline-6-sulphonic acid) substrate with stabilized hydrogen peroxide (Kirkegaard Perry Laboratories, Inc., Gaithersburg, Md.) is added per well for 10 minute at RT. Various deletion control wells without biotinylated aptamers or SAv-peroxidase are set up and evaluated to establish background levels as well. Finally absorbance is quantified using a microplate reader with 405 nm optical filter.
(§4) These aptamers were: H9-3/19F and B13-9R for the 9-HODE and biotinylated 13-HODE targets respectively and they proceeded into animal testing.

[6] = ELASA (ELISA-like) plate screening of aptamers against 9-HODE; type: binding; details: for Affinity ranking in ELASA plate screening: 9-HODE target, three trials, done in triplicate; for Trial 1 Abs 405 nm: ELASA trial 1; for Trial 3 Abs 405 nm: ELASA trial 3
Description: as §1, §2, §3, §4

[7] = SPR analysis (Biacore X100) with immobilized 13(S)-HODE-Biotin; type: binding; details: CM5 chip, 1×HBS-EP+ buffer, aptamer 20-80 μM, contact 90 s, dissociation 600 s; read-out: dissociation constant, KD
Description: SPR Analysis of H9-3/19F Aptamer and B13-9R Aptamer with 13(S)-HODE-Biotin
(§5) 13(S)-HODE-Biotin was immobilized on a CM5 sensor chip utilizing biotin-streptavidin chemistry. Various concentrations of H9-3/19F aptamer (SEQ ID. NO. 84) were flowed through the Biacore X100 with 1×HBS-EP+ running buffer at a flow rate of 30 μl/min and allowed a contact time with the surface-bound ligand of 90 seconds, followed by a dissociation time set at 600 seconds. The following concentrations of aptamer were used: 20 μM, 40 μM, 60 μM and 80 μM.
as §5, with “B13-9R” for “H9-3/19F”, “67)” for “84)”

[8] = test system: cultured capsaicin-sensitive neurons; assay: Patch clamp electrophysiology of cultured capsaicin-sensitive neurons; type: cell-based
[9] = test system: rat hindpaws inflamed with complete Freund's adjuvant (CFA); assay: Pain responses in rat hindpaws inflamed with complete Freund's adjuvant (CFA); type: in vivo; details: local (hindpaw) injection, FIG. 2
[10] = 9-HODE aptamers, absorbance 10-15 minutes after final addition of ABTS substrate

9-hydroxyoctadecadienoic acid [Aptamer 9-HODE]
tactile allodynia [1]: results in tactile allodynia

COc1cc(CNC(=O)CCCC/C=C/C(C)C)ccc1O [capsaicin]
tactile allodynia [1]: results in tactile allodynia

Oc1cc2c(cc1O)CN(C(=S)NCCc1ccc(Cl)cc1)CCC2 [capsasepine]
LA-evoked nocifensive behaviors [2]: significantly reduced

CCCCC/C=C\C/C=C\CCCCCCCC(=O)O [linoleic acid, cis, cis-9,12-octadecadienoic acid]
LA-triggered nocifensive behaviors [3]: significantly reduced | spontaneous nocifensive behaviors [4]: does not produce a significant increase

B1: B13-1a/4/6/15/17/19/20R: DNA aptamer clone, biotinylated 13-HODE target (nucleic acid)
DNA: ATCCGTCACACCTGCTCTCGAGTATAAGGGGGAGTTGCATAACGCTAAACTTTGTGGTGTTGGCTCCCGTAT
modifications: DNA, backbone not given here
notes: DNA aptamer clone, biotinylated 13-HODE target
Trial 2 Abs 405 nm [5]: 1.595

B2: 5′-ATACGGGAGCCAACACCACCGAATGTGCTGCAGGACTAATCTGGATGGCCATGCAGAGCAGGTGTGACGGAT-3′ (nucleic acid)
DNA: ATACGGGAGCCAACACCACCGAATGTGCTGCAGGACTAATCTGGATGGCCATGCAGAGCAGGTGTGACGGAT
modifications: DNA, backbone not given here
notes: DNA aptamer for the OLAM 9-HODE
Affinity ranking in ELASA plate screening [6]: highest affinity; also recorded: top two to three strongest absorbance signals | Affinity ranking in ELASA plate screening ([6]; listed as SEQ ID NO. 84): highest binding affinity | Trial 1 Abs 405 nm [6, 10]: 2.081 | Trial 2 Abs 405 nm ([6]; ELASA trial 2, 9-HODE aptamers, absorbance 10-15 minutes after final addition of ABTS substrate): 1.648 | Trial 3 Abs 405 nm [6, 10]: 1.640 | Kd [7]: 0.129 nM | block of capsaicin response (selectivity) ([8]; capsaicin itself / TRPV1 directly): does not block capsaicin itself | activation of cultured capsaicin-sensitive neurons ([8]; pre-treatment with aptamer, 9-HODE response, preliminary data, FIG. 1): blocks activation | pain responses to mechanical stimuli [9]: significant reduction in pain responses | pain responses to thermal stimuli [9]: significant reduction in pain responses

B3: H9-3/19R: DNA aptamer clone, 9-HODE target (nucleic acid)
DNA: ATCCGTCACACCTGCTCTGCATGGCCATCCAGATTAGTCCTGCAGCACATTCGGTGGTGTTGGCTCCCGTAT
modifications: DNA, backbone not given here
notes: DNA aptamer clone, 9-HODE target
Trial 1 Abs 405 nm [6, 10]: 1.571

B4: H13-1/2-4/6-8/14-18/20F: DNA aptamer clone, 13-HODE target (nucleic acid)
DNA: ATACGGGAGCCAACACCACAAAGTTTAGCGTTATGCAACTCCCCCTTATACTCGAGAGCAGGTGTGACGGAT
modifications: DNA, backbone not given here
notes: DNA aptamer clone, 13-HODE target
Trial 2 Abs 405 nm [5]: 1.199 | Trial 3 Abs 405 nm [5]: 1.387

B5: H9-2/4-6/8a/9b/14/20F: DNA aptamer clone, 9-HODE target (nucleic acid)
DNA: B4 DNA
modifications: DNA, backbone not given here
notes: as for B3
Trial 3 Abs 405 nm [6, 10]: 1.249

B6: B13-12R: DNA aptamer clone, biotinylated 13-HODE target (nucleic acid)
DNA: ATCCGTCACACCTGCTCTGCCATTGAATCTCATATGGTGCTCGAGTAGCTGGTGTGGTGTTGGCTCCCGTAT
modifications: DNA, backbone not given here
notes: as for B1
Trial 3 Abs 405 nm [5]: 1.310

B7: B13-8F: DNA aptamer clone, biotinylated 13-HODE target (nucleic acid)
DNA: ATACGGGAGCCAACACCAGCGAAGCCAAAACTGGTCGGGCCGACGGGATTCGTTAGAGCAGGTGTGACGGAT
modifications: DNA, backbone not given here
notes: as for B1
Trial 1 Abs 405 nm [5]: 1.490

B8: H13-12F: DNA aptamer clone, 13-HODE target (nucleic acid)
DNA: ATACGGGAGCCAACACCATGTTACATCAACTGCATGAAGACGAGGAATGTGATGAGAGCAGGTGTGACGGAT
modifications: DNA, backbone not given here
notes: as for B4
Trial 1 Abs 405 nm [5]: 1.442

B9: B13-10bR: DNA aptamer clone, biotinylated 13-HODE target (nucleic acid)
DNA: ATCCGTCACACCTGCTCTGCGGACAGCGGTTGCGCATATATCGTGGCAGTGGGCTGGTGTTGGCTCCCGTAT
modifications: DNA, backbone not given here
notes: as for B1
Trial 2 Abs 405 nm [5]: 1.214

B10: 5′-ATCCGTCACACCTGCTCTGGGGGGGGAAGCTCGTGGTATAAGGGGCGTTGAGGTGGTGTTGGCTCCCGTAT-3′ (nucleic acid)
DNA: ATCCGTCACACCTGCTCTGGGGGGGGAAGCTCGTGGTATAAGGGGCGTTGAGGTGGTGTTGGCTCCCGTAT
modifications: DNA, backbone not given here
notes: DNA aptamer for the OLAM 13-HODE
Trial 1 Abs 405 nm [5]: 1.549 | Trial 2 Abs 405 nm [5]: 1.885 | Trial 3 Abs 405 nm [5]: 1.964 | Affinity ranking in ELASA plate screening [5]: highest affinity; also recorded: top two to three strongest absorbance signals | Affinity ranking in ELASA plate screening ([5]; listed as SEQ ID NO. 67): highest binding affinity | Kd [7]: 2.56 nM

— patent US10100317B2, “Compositions of matter that reduce pain, shock, and inflammation by blocking linoleic acid metabolites and uses thereof” (Board of Regents of the University of Texas System, priority 2012, dated 2018)
